Data reported in PMC9399855 (2022).

Experiments:
[1] = biological target: T1, hybrid insulin peptide 6.3HIP: insulin B-chain B13-19 joined to ProSAAS 219-225 peptide on I-Ag7 (mouse); assay: cytokine release
T1 peptide: EALYLVCSVDQDLG

[2] = biological target: T2, 6.3HIP 2-14 (N-terminal truncation of the 6.3HIP) peptide on I-Ag7 (mouse); assay: cytokine release
T2 peptide: ALYLVCSVDQDLG

[3] = biological target: T3, 6.3HIP -1-14 (6.3HIP with a valine added at the N-terminus); RESTORED: the article prints …, which lacks the … (mouse); assay: cytokine release
T3 peptide: VEALYLVCSVDQDLG

[4] = biological target: T4, 6.3HIP 10D>R (mutant of B13-19/ProSAAS 219-225) peptide on I-Ag7 (mouse); assay: cytokine release
T4 peptide: EALYLVCSVRQDLG

[5] = biological target: T5, 6.3HIP 12D>R (mutant of B13-19/ProSAAS 219-225) peptide on I-Ag7 (mouse); assay: cytokine release
T5 peptide: EALYLVCSVDQRLG

[6] = biological target: T6, 6.3HIP 1-11: insulin B-chain B13-19 joined to ProSAAS 219-222 peptide on I-Ag7 (mouse); assay: multimer staining
T6 peptide: EALYLVCSVDQ

binding result [1]: recognises
binding result [2]: no recognition
binding result [3]: recognises
binding result [4]: no recognition
binding result [5]: recognises
binding result [6]: recognises
B1: PD12-4.4 (TCR)
alpha TRAV5D-4 TRAJ53 CDR3: CAASASGGSNYKLTF
beta TRBV5 CDR3: CASSQDTNTGQLYF
